Our source for the PLA signal, fold above the control with only NBCn1 antibody values is paper PMC5943355.

This assay deals with Na+,HCO3- co-transporter NBCn1 (SLC4A7), native in MDCK-II cells (canine (endogenous in MDCK-II)). Kind of assay: proximity ligation; in situ PLA (Duolink II) with primary antibodies against NBCn1 and RACK1 in fixed non-confluent (60-70% confluency) MDCK-II or MCF-7 cells; control with only NBCn1 antibody.

Substance “RACK1, native in MDCK-II cells (natural protein)” yielded a PLA signal, fold above the control with only NBCn1 antibody of 8 fold.
